# Publication PMC3699631, “Posttranslational Modifications of the Histone 3 Tail and Their Impact on the Activity of Histone Lysine Demethylases In Vitro” (PLoS ONE, 2013)
# “Also recorded” adds a separate entry of the source.
# Molecular target: T1, human FL-KDM4A (Homo sapiens, UniProt O75164)
# T1 construct: along with the full length FL- KDM4C and FL-KDM4A using various synthetic histone tail peptides as substrates; His6 (N); made in house; host or cells: High Five (Trichoplusia ni) insect cells, baculovirus
# T1 sequence (O75164 1-1064): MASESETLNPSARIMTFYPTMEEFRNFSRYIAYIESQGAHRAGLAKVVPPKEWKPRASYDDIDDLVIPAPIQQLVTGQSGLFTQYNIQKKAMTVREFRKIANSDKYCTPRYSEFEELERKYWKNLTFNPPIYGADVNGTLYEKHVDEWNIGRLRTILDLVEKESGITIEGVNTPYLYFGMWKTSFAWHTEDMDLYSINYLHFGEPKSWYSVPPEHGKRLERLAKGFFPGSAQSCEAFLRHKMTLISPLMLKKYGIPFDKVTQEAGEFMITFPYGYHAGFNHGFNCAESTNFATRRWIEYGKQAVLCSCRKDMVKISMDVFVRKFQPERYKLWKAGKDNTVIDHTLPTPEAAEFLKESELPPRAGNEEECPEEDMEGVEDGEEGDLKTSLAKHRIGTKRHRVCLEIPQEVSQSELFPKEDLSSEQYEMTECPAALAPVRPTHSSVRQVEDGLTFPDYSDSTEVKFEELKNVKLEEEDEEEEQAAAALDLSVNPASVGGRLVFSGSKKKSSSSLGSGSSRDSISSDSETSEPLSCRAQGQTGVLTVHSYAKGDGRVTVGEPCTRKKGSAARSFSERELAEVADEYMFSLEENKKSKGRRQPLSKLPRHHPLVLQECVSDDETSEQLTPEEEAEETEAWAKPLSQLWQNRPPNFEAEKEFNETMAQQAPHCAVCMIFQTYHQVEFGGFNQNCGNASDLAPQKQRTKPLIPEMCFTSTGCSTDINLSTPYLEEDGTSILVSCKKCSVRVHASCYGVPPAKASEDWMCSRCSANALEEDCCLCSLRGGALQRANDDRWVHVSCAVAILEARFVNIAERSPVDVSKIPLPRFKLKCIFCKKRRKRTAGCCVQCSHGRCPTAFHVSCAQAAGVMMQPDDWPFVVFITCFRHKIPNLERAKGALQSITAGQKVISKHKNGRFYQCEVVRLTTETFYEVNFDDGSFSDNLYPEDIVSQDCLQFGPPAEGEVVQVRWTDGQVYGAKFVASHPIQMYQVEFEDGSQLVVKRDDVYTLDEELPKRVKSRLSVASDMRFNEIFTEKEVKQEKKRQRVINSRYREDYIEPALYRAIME
# Assay: FDH-assay enzyme kinetics of H3 peptide demethylation, full length KDM4A
# Assay type: biochemical
# Design: key to K m / k cat / k cat /K m: 0 means no demethylation could be detected
# Details: for demethylation / catalytic activity (in words) / K m / k cat / k cat /K m: FDH-assay; for K m: 50 mM HEPES (pH 7.5), 50 mM NaCl, 50 µM FeSO4, 500 µM α-KG, 500 µM ascorbate, 2 mM NAD, substrate 10–1000 µM, NADH fluorescence 15–30 minutes; for K m / k cat: triplicate; for k cat: pH 7.5, NADH fluorescence; for k cat /K m: pH 7.5, triplicate
# Method: The enzyme kinetics were measured using a Formaldehyde DeHydrogenase Assay (FDH-Assay) and the demethylation of substrates was confirmed when possible by MALDI-TOF-MS, see File S1 for details. The test solution contained 50 mM HEPES (pH 7.5), 50 mM NaCl, 50 µM FeSO4, 500 µM α-KG, 500 µM ascorbate, 2 mM NAD, approximately 0.05 unit of FDH and e.g. 4.88 µM KDM4C (enzyme concentration varied between batches). The reference solution was comprised of the same except substrate. The assay was initiated by adding various concentrations of H3 peptide substrates e.g. H3(1–24)K9me3 (10–1000 µM) and the increase in NADH fluorescence was measured over 15–30 minutes in 30 second intervals. Data analysis and kinetic values were obtained using programs Excel and GraphPad Prism® 5.0. For details, see File S1.
# The standard deviations for k cat/K m were calculated using the statistic law of propagation of errors. Standard errors for Michaelis-Menten Kinetics were automatically given in GraphPad Prism®, with a 95% confidence interval. All enzyme kinetic curves were done in triplicate unless otherwise stated.
# Test for activity of enzyme using the fluorescence FDH assay, determination of Vmax and Km of enzymes with substrate, expression and purification of cc-KDM4A and cc-KDM4C software and parameters for the FDH coupled assay, see Lohse et al.^21
# Recombinant baculoviridae encoding the full Open Reading Frame (ORF) of FL-KDM4A and FL-KDM4C were generously donated from the Biotech Research and Innovation Centre (BRIC), University of Copenhagen, Denmark. Recombinant protein was expressed by adding High Titer Stocks to High Five (Trichopulsia ni) insect cells in suspension culture. The cell cultures were harvested by centrifugation after ~ 60 hours and the cells were resuspended in hypotonic buffer (25 mM Hepes-KOH, pH 7.7, 1.5 mM MgCl, 5 mM KCl) supplemented with one protease inhibitor cocktail tablet per 500 ml expression (Roche, EDTA-free). The resuspended cells were frozen at -20 °C.
# Both proteins were purified by IMAC using Talon FF (Clontech) cobalt resin according to the following protocol; resuspended cells were thawed on ice, 100 ml hypotonic buffer was added per 500 ml expression volume and the cells were incubated with stirring for 30 min. at 4 °C, followed by a brief (30 s per 500 ml culture volume) sonication. β-mercaptoethanol (BME, 2 mM final concentration), Triton X-100 (0.2 % final concentration) and NaCl (300 mM final concentration) were added and the cell suspension was stirred for another 30 min at 4 °C. The lysate was cleared by centrifugation at 50.000 g for 60 minutes. The cleared lysates were adjusted to 5 mM imidazole and incubated with Talon resin (1 ml /500 ml expression) for 60 minutes. The resin was allowed to sediment, the lysate removed and the resin was transferred to PD-10 gravity flow columns (GE Healthcare). The resin was washed with 10 column volumes of binding buffer (50 mM Hepes-KOH, pH 7.7, 300 mM NaCl, 5 mM imidazole, 10% glycerol, 0.05 % Triton X-100, 2 mM BME) and eluted with 2 x 2.5 ml elution buffer (50 mM Hepes-KOH, pH 7.7, 300 mM NaCl, 100 mM imidazole, 10 % glycerol, 0.05 % Triton X-100, 2 mM BME). Each eluted fraction has its buffer changed to 50 mM Hepes pH 7.5, 300 mM NaCl, 10 % glycerol using a PD-10 desalting column. The protein was concentrated to 6-7 mg/ml (FL-KDM4A) or 10-12 mg/ml (FL-KDM4C). Despite the buffer change it is likely that small amounts of Triton X-100 remained in the protein samples. Triton X-100 has a significant absorbance at 280 nm, so the protein concentration was determined by Bradford assay using a BSA standard curve. The protein purity was approximately 70 % as judged from SDS-PAGE. The concentrated protein was aliquoted and stored at -80 °C until assays were performed.
# The standard deviations for kcat/ Km were calculated using the statistic law of propagation of errors. […]
# [1] = SD by propagation of errors, unit: (min^−1 * µM^−1) * 10^3
Substance,demethylation / catalytic activity (in words),K m,k cat,k cat /K m [1],k cat /K m (figures),fold increase in k cat/K m (compared to H3(1–24)K9me3)
H3(1–24)K9me3T11(ph): H3(1–24)K9me3 with phosphorylation of threonine 11,no detectable turnover,0,0,0,,
"H3(1–24)K9me2: truncated histone tail, 24 first amino acids from the N-terminus of H3, dimethylated lysine 9",too low to be detected; also recorded: could not be detected,0,0,0,,
"H3(1–24)K9me3: truncated histone tail, 24 first amino acids from the N-terminus of H3, trimethylated lysine 9; control peptide",preference for the H3K9me3 over the H3K9me2,122±31,,3.1±0.3,3 ± 0.4 min^-1 * μM^-1 * 10^3,
"H3(1–24)K4me3K9me3: bis-tri-methylated substrate, trimethylated K4 in combination with H3K9me3","an increase in FL-KDM4A demethylation activity, which is significantly higher compared to cc-KDM4A",45±9,2.2±0.3,,50 ± 9 min^-1 * μM^-1 * 10^3,17 fold
